Results from PMC5605238.

T1: Hrq1 (Saccharomyces cerevisiae, UniProt Q05549 1-1077)
T1 sequence: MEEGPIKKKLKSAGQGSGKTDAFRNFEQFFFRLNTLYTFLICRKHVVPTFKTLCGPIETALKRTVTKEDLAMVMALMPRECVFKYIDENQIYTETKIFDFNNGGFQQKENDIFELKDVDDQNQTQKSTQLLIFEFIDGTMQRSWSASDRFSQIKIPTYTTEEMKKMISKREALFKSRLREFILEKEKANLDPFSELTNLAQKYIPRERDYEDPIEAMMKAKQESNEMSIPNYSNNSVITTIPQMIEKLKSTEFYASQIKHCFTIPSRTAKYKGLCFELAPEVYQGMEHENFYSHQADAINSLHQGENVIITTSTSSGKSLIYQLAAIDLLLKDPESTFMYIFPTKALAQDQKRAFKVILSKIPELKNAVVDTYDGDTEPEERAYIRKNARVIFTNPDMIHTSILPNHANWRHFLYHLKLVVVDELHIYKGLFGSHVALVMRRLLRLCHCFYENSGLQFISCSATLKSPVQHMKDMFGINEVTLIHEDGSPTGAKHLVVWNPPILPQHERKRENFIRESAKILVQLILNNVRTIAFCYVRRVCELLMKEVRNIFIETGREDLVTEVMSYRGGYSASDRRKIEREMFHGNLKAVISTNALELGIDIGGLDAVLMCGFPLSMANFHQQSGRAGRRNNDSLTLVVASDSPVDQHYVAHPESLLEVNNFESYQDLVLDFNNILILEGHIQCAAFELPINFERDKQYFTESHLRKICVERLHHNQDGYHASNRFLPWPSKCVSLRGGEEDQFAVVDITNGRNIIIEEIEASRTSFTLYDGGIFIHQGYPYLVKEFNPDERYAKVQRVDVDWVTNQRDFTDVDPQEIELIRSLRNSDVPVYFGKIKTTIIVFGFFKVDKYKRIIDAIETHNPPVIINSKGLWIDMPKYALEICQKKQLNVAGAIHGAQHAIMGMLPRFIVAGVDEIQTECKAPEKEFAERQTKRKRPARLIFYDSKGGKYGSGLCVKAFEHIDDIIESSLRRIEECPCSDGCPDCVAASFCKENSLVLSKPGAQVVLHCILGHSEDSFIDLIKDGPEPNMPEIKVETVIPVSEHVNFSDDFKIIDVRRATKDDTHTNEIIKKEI

T2: RecQ4 (Homo sapiens, UniProt O94761 1-1208)
T2 sequence: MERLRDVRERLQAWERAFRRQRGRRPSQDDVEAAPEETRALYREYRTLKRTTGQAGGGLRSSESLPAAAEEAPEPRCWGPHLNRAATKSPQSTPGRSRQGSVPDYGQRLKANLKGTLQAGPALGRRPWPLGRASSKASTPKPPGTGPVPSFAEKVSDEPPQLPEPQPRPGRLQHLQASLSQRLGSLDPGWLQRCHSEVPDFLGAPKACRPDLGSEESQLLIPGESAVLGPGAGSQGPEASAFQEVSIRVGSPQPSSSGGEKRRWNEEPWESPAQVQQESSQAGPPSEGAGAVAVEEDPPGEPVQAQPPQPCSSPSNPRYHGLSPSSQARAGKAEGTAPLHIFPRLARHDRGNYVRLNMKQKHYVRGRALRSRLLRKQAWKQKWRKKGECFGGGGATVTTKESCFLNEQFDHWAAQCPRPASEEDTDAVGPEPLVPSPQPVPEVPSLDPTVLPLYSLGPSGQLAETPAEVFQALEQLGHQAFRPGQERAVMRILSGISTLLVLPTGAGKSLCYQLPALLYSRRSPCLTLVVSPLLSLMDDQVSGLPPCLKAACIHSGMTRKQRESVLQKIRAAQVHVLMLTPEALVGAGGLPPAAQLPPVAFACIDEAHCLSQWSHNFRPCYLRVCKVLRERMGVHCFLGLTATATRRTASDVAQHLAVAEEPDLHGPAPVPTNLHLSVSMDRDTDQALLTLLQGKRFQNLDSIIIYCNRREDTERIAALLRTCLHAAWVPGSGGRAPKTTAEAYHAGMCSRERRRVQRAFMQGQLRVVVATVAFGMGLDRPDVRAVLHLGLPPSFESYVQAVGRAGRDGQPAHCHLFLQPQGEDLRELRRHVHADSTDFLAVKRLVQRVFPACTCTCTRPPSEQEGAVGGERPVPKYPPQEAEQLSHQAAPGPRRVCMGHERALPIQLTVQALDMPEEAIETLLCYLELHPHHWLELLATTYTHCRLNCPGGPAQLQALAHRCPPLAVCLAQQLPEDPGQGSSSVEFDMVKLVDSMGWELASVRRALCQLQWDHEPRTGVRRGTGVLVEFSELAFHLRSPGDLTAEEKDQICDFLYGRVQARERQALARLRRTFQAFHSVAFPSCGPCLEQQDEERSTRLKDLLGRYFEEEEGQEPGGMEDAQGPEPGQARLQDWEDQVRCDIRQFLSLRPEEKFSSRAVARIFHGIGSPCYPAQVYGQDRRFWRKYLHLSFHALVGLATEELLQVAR


How the values were obtained:
Hrq1 = biological target: T1, Hrq1; assay: EMSA
RecQ4 = biological target: T2, RecQ4; assay: EMSA

| Binder | Kd (Hrq1) [nM] | Kd (RecQ4) [nM] |
| --- | --- | --- |
| Holliday junction (HJ) (structured_DNA) DNA 1: GACGCTGCCGAATTCTGGCTTGCTAGGACATCTTTGCCCACGTTGACCC DNA 2: TGGGTCAACGTGGGCAAAGATGTCCTAGCAATGTAATCGTCTATGACGTT DNA 3: CAACGTCATAGACGATTACATTGCTAGGACATGCTGTCTAGAGACTATCGA DNA 4: ATCGATAGTCTCTAGACAGCATGTCCTAGCAAGCCAGAATTCGGCAGCGT | 79.2 ± 22.7 | 90.1 ± 23.4 |
| Human Tel Fork (Poly(TTAGGG) Fork) (dsDNA) DNA 1: TTAGGGTTAGGGTTAGGGTTAGGGTGTGTCACTCACATAGCGTTC DNA 2: GAACGCTATGTGAGTGACACTTAGGGTTAGGGTTAGGGTTAGGGT | 15.7 ± 1.7 | 39.7 ± 8.3 |
| G4 (structured_DNA) DNA: AAAGGGGGAGCTGGGGTAGATGGGAATGTGAGGGCAACAGGTGAGTCAACGTGTTGCCA | 17.6 ± 2.2 | 12.3 ± 2.5 |
| TTTTTTTTTTTTTTTTTTTTTTTTTTTTTTTTTTTTTTTT (ssDNA) [Poly(dT) 40mer ssDNA] | 3.45 ± 0.19 | 2.38 ± 0.15 |
| Yeast Tel Fork (Poly(TG1-3) Fork) (dsDNA) DNA 1: GGTGTGGTGTGGGTGTGGTGTGGGTGTGTCACTCACATAGCGTTC DNA 2: GAACGCTATGTGAGTGACACTGGGTGTGGTGTGGGTGTGGTGTGG | 3.5 ± 0.4 | 18.5 ± 3.1 |
| D-loop (structured_DNA) DNA 1: GGGTGAACCTGCAGGTGGGCGGCTGCTCATCGTAGGTTAGTGGTAGAATTCGGCAGCGTC DNA 2: GACGCTGCCGAATTCTACCATGCCTTGCTAGGACATCTTTGCCCACCTGCAGGTTCACCC DNA 3: TAAGAGCAAGATGTTCTATAAAAGATGTCCTAGCAAGGCA | 9.9 ± 0.7 | 12.6 ± 1.8 |
| Poly(dT) Fork (dsDNA) DNA 1: TTTTTTTTTTTTTTTTTTTTTTTTTGTGTCACTCACATAGCGTTC DNA 2: GAACGCTATGTGAGTGACACTTTTTTTTTTTTTTTTTTTTTTTTT | 6.5 ± 0.5 | 50.9 ± 10.4 |
| Bubble (dsDNA) DNA 1: GGTGAACCTGCAGGTGGGCGGCTGCTCATCGTAGGTTAGTTGGTAGAATTCGGCAGCGTC DNA 2: GACGCTGCCGAATTCTAGGTTGATTGGATGCTACTCGTCGGCGCCACCTGCAGGTTCACC | 36.1 ± 4.9 | 16.8 ± 2.3 |
| 25-nt Random Fork (dsDNA) DNA 1: ACCGTTGTGCAACTGAGTGGACAACGTGTCACTCACATAGCGTTC DNA 2: GAACGCTATGTGAGTGACACCAACAGGTGAGTCAACGTGTTGCCA |  | 108 ± 32.5 |
| 3' tail (dsDNA) DNA 1: GAACGCTATGTGAGTGACACCAACAGGTGAGTCAACGTGTTGCCA DNA 2: GTGTCACTCACATAGCGTTC | 141 ± 59.4 | 21.8 ± 4.2 |
| 5' tail (dsDNA) DNA 1: ACCGTTGTGCAACTGAGTGGACAACGTGTCACTCACATAGCGTTC DNA 2: GAACGCTATGTGAGTGACAC | 154 ± 44.6 | 102 ± 29.4 |
